Measurements taken from patent US20220177587A1, “METHODS AND USES OF VARIANT CD80 FUSION PROTEINS AND RELATED CONSTRUCTS” (Alpine Immune Sciences, Inc., priority 2018, published 2022).
Residue numbers refer to the chain shown, from its start. Numbers in names are those of the source.

B1: E35D/M47V/T62S/L85Q (protein)
chain: VIHVTKEVKEVATLSCGHNVSVEELAQTRIYWQKDKKMVLTMMSGDVNIWPEYKNRTIFDISNNLSIVILALRPSDEGTYECVVQKYEKDAFKREHLAEVTLSVKAD
B2: E35D/M47V/L85M/R94Q (protein)
chain: B1 chain with S62T, Q85M, R94Q
B3: E35D/M47V/I61V/L85M (protein)
chain: B1 chain with I61V, S62T, Q85M
B4: M47V/K89N (protein)
chain: B1 chain with D35E, S62T, Q85L, K89N
B5: N48K (protein)
chain: B1 chain with D35E, V47M, N48K, S62T, Q85L
B6: M47V/N48K (protein)
chain: B1 chain with D35E, N48K, S62T, Q85L
B7: N48K/V68M (protein)
chain: B1 chain with D35E, V47M, N48K, S62T, V68M, Q85L
B8: V68M/L85Q (protein)
chain: B1 chain with D35E, V47M, S62T, V68M
B9: E35D/M47L/V68M/L85Q (protein)
chain: B1 chain with V47L, S62T, V68M
B10: M47L/V68M/L85Q (protein)
chain: B1 chain with D35E, V47L, S62T, V68M
B11: H18Y/A26E/E35D/V68M (protein)
chain: B1 chain with H18Y, A26E, V47M, S62T, V68M, Q85L
B12: A26E/M47L/V68M/D90G (protein)
chain: B1 chain with A26E, D35E, V47L, S62T, V68M, Q85L, D90G
B13: H18Y/A26E/M47L/D90G (protein)
chain: B1 chain with H18Y, A26E, D35E, V47L, S62T, Q85L, D90G
B14: A26E/M47L/V68M/A71G (protein)
chain: B1 chain with A26E, D35E, V47L, S62T, V68M, A71G, Q85L
B15: H18Y/A26P/E35D/M471/V68M/A71G (protein)
chain: B1 chain with H18Y, A26P, V47I, S62T, V68M, A71G, Q85L
B16: H18I/A26P/E35D/M47V/V68M/A71G (protein, UniProt P33681 35-288, looked up, variant H18I A26P E35D M47V V68M A71G)
T-lymphocyte activation …: VIHVTKEVKEVATLSCGINVSVEELPQTRIYWQKDKKMVLTMMSGDVNIWPEYKNRTIFDITNNLSIMILGLRPSDEGTYECVVLKYEKDAFKREHLAEVTLSVKADFPTPSISDFEIPTSNIRRIICSTSGGFPEPHLSWLENGEELNAINTTVSQDPETELYAVSSKLDFNMTTNHSFMCLIKYGHLRVNQTFNWNTTKQEHFPDNLLPSWAITLISVNGIFVICCLTYCFAPRCRERRRNERLRRESVRPV
B17: H18V/A26G/E35D/M47V/V68M/A71G/D90G (protein, UniProt P33681 35-288, looked up, variant H18V A26G E35D M47V V68M A71G D90G)
T-lymphocyte activation …: B16 T-lymphocyte activation … with I18V, P26G, D90G
B18: H18L/E35D/M47V/V68M/A71G/D90G (protein, UniProt P33681 35-288, looked up, variant H18L E35D M47V V68M A71G D90G)
T-lymphocyte activation …: B16 T-lymphocyte activation … with I18L, P26A, D90G

The molecules below were run against T1, CD28 (Homo sapiens, UniProt P10747) (assay: Jurkat/IL2 + CHO/OKT3 +/- PD-L1 reporter assay: PD-L1-dependent CD28 costimulation). Conditions: Table E12; Jurkat/IL2 + CHO/OKT3/PD-L1; 5.0 nM.
Assay type: cell-based
Parameters: host or cells: Jurkat cells expressing an IL-2-luciferase reporter
Summary of the method: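 Jurkat reporter cells (100,000/well) preincubated 15 min at room temperature with test protein, then cocultured 5 h at 37 °C with CHO aAPCs bearing anti-CD3 scFv (OKT3) with or without PD-L1. Luciferase luminescence (RLU) read after lysis-substrate addition.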

With B1 as the molecule, how does the “Relative Luciferase Units (RLU), CD80 Cone 5.0 nM” value (from here on “Relative Luciferase Units (RLU)”) read?
Its value is 1402 RLU.

B2 was tested. Which “Relative Luciferase Units (RLU)” value did it give?
Its value is 466 RLU.

For B3, which “Relative Luciferase Units (RLU)” value is on record?
The value was 1176 RLU.

Each molecule was assayed against huPD-L1 (Homo sapiens, UniProt Q9NZQ7) (assay: Flow binding to CHO cells stably expressing PD-L1). Conditions: Table E19; CHO cells stably expressing PD-L1; 33.3 nM.
Parameters: huCTLA4 and huPD-L1, full-length mammalian surface expression constructs were generated; expressed in transfected cells; host or cells: CHO cells, lentiviral transduction, sorted to >98% purity
Summary of the method: (§1)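 Flow cytometry on transfected CHO cells or CD28+ Jurkat/IL2 reporter cells, blocked 20 min in PBS/1% BSA/0.1% azide. Fusion protein 45 min on ice; PE anti-human Fc 1:150, 30 min on ice; fixed in 2% formaldehyde. Read-out PE MFI, EC50 calculated.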

huPD-L1, sequence (Q9NZQ7 19-290): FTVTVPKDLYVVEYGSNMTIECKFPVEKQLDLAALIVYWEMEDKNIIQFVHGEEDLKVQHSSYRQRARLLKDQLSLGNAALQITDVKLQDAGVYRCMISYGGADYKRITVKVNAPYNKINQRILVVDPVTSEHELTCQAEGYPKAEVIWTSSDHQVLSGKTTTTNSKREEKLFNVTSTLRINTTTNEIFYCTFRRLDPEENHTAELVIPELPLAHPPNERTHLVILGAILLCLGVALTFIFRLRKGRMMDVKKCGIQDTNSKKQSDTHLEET

Which “PD-L1 MFI at 33.3 nM” value does the source give for B4 here?
Its value is 622.

For B5, which “PD-L1 MFI at 33.3 nM” value is on record?
Its value is 481.

How did the “PD-L1 MFI at 33.3 nM” value turn out when B6 was run?
The value was 3083.

B7 was tested. Which “PD-L1 MFI at 33.3 nM” value did it give?
Its value is 754.

For B8, which “PD-L1 MFI at 33.3 nM” value is on record?
Its value is 347.

Which “PD-L1 MFI at 33.3 nM” value does the source give for B9 here?
The value was 15307.

How did the “PD-L1 MFI at 33.3 nM” value turn out when B10 was run?
The value was 4039.

Same assay, conditions: Table E20; CHO cells stably expressing PD-L1; 33.3 nM

How did the “PD-L1 MFI at 33.3 nM” value turn out when B11 was run?
The value was 17904.

With B12 as the molecule, how does the “PD-L1 MFI at 33.3 nM” value read?
Its value is 10626.

For B13, which “PD-L1 MFI at 33.3 nM” value is on record?
Its value is 8933.

B14 was tested. Which “PD-L1 MFI at 33.3 nM” value did it give?
Its value is 1667.

Same assay, conditions: Table E23; CD80 IgV-Fc (inert) at 33.3 nM; CHO cells stably expressing PD-L1

How did the “PD-L1 MFI at 33.3 nM” value turn out when B15 was run?
The value was 54482.

B16 was tested. Which “PD-L1 MFI at 33.3 nM” value did it give?
Its value is 64919.

B17 was tested. Which “PD-L1 MFI at 33.3 nM” value did it give?
The value was 66198.

B18 was tested. Which “PD-L1 MFI at 33.3 nM” value did it give?
The value was 64761.

Same assay, conditions: Table E23; MFI at 33.3 nM relative to CD80 WT IgV-Fc

For B15, which “PD-L1 Fold change to WT CD80” value is on record?
Its value is 330.2.

With B16 as the molecule, how does the “PD-L1 Fold change to WT CD80” value read?
Its value is 393.4.

Same assay, conditions: Table E23; ratio of MFI at 33.3 nM

B15 was tested. Which “Ratio of PDL1:CD28” value did it give?
Its value is 10.6.

With B16 as the molecule, how does the “Ratio of PDL1:CD28” value read?
The value was 25.2.

These molecules were tested against T1, CD28 (assay: Flow binding to Jurkat/IL2 reporter cells (CD28)). Conditions: Table E10; 33.3 nM; Jurkats (CD28).
Parameters: host or cells: Jurkat cells expressing an IL-2-luciferase reporter
Protocol: Binding of selected immunomodulatory fusion proteins to cognate binding partners was assessed. […] Cells were sorted in a Bio-Rad S3 Cell Sorter (Bio-Rad Corp., USA) to >98% purity. Jurkat/IL2 reporter cells, which endogenously express CD28, were used to detect binding to CD28.
For staining and analysis by flow cytometry, 100,000 cells of appropriate transfected cells were plated in 96-well round bottom plates. Cells were spun down and resuspended in staining buffer (phosphate buffered saline (PBS), 1% bovine serum albumin (BSA), and 0.1% sodium azide) for 20 minutes to block non-specific binding. […] Primary staining was performed on ice for 45 minutes, before washing cells in staining buffer twice. Phycoerythrin (PE)-conjugated anti-human Fc (Jackson ImmunoResearch, USA) was diluted 1:150, added to cells and incubated another 30 minutes on ice. Cells were then washed twice with 150 μL/well stain buffer, fixed in 2% formaldehyde/PBS, and analyzed on Intellicyt flow cytometer (Intellicyt Corp., USA). PE Mean Fluorescence Intensity (MFI) was calculated for each cell type with FlowJo Version 10 software (FlowJo LLC, USA).
Binding assays were carried out to assess the specificity and affinity of multivalent proteins to cell-expressed CTLA-4, CD28, and PD-L1 counter structures.
The EC50 for binding also was determined.

B1 was tested. Which “CD28 MFI at 33.3 nM” value did it give?
The value was 99.4.

For B2, which “CD28 MFI at 33.3 nM” value is on record?
The value was 23.7.

For B3, which “CD28 MFI at 33.3 nM” value is on record?
The value was 274.

Same assay, conditions: Table E19; Jurkats (CD28); 33.3 nM

How did the “CD28 MFI at 33.3 nM” value turn out when B4 was run?
Its value is 197.

For B5, which “CD28 MFI at 33.3 nM” value is on record?
The value was 60.1.

For B6, which “CD28 MFI at 33.3 nM” value is on record?
Its value is 413.

How did the “CD28 MFI at 33.3 nM” value turn out when B7 was run?
The value was 118.

For B8, which “CD28 MFI at 33.3 nM” value is on record?
The value was 91.7.

B9 was tested. Which “CD28 MFI at 33.3 nM” value did it give?
The value was 159.

For B10, which “CD28 MFI at 33.3 nM” value is on record?
The value was 60.9.

Same assay, conditions: Table E20; Jurkats (CD28); 33.3 nM

For B11, which “CD28 MFI at 33.3 nM” value is on record?
The value was 372.

For B12, which “CD28 MFI at 33.3 nM” value is on record?
The value was 2583.

With B13 as the molecule, how does the “CD28 MFI at 33.3 nM” value read?
Its value is 2858.

B14 was tested. Which “CD28 MFI at 33.3 nM” value did it give?
The value was 98.7.

Same assay, conditions: Table E23; CD80 IgV-Fc (inert) at 33.3 nM; Jurkat (CD28)

With B15 as the molecule, how does the “CD28 MFI at 33.3 nM” value read?
The value was 5125.

B16 was tested. Which “CD28 MFI at 33.3 nM” value did it give?
Its value is 2573.

How did the “CD28 MFI at 33.3 nM” value turn out when B17 was run?
The value was 8189.

Which “CD28 MFI at 33.3 nM” value does the source give for B18 here?
The value was 6349.

Same assay, conditions: Table E23; MFI at 33.3 nM relative to CD80 WT IgV-Fc

B15 was tested. Which “CD28 Fold change to WT CD80” value did it give?
The value was 50.2.

For B16, which “CD28 Fold change to WT CD80” value is on record?
The value was 25.2.

These molecules were tested against huCTLA4 (Homo sapiens, UniProt P16410) (assay: Flow binding to CHO cells stably expressing CTLA4). Conditions: Table E10; 33.3 nM; CHO cells stably expressing CTLA4.
Parameters: huCTLA4 and huPD-L1, full-length mammalian surface expression constructs were generated; expressed in transfected cells; host or cells: CHO cells, lentiviral transduction, sorted to >98% purity
Summary of the method: as §1

huCTLA4, sequence (P16410 36-223): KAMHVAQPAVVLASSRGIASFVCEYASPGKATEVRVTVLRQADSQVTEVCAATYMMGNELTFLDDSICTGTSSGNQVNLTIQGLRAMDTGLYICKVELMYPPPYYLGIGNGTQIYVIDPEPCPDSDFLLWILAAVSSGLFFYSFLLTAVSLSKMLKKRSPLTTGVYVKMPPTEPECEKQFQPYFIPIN

Which “CTLA4 MFI at 33.3 nM” value does the source give for B1 here?
The value was 31230.

For B2, which “CTLA4 MFI at 33.3 nM” value is on record?
Its value is 23334.

B3 was tested. Which “CTLA4 MFI at 33.3 nM” value did it give?
Its value is 28848.

Same assay, conditions: Table E19; CHO cells stably expressing CTLA4; 33.3 nM

With B4 as the molecule, how does the “CTLA4 MFI at 33.3 nM” value read?
Its value is 32381.

Which “CTLA4 MFI at 33.3 nM” value does the source give for B5 here?
Its value is 4952.

With B6 as the molecule, how does the “CTLA4 MFI at 33.3 nM” value read?
The value was 44640.

Which “CTLA4 MFI at 33.3 nM” value does the source give for B7 here?
The value was 2341.

Which “CTLA4 MFI at 33.3 nM” value does the source give for B8 here?
The value was 3288.

How did the “CTLA4 MFI at 33.3 nM” value turn out when B9 was run?
Its value is 28106.

B10 was tested. Which “CTLA4 MFI at 33.3 nM” value did it give?
The value was 11134.

Same assay, conditions: Table E20; CHO cells stably expressing CTLA4; 33.3 nM

Which “CTLA4 MFI at 33.3 nM” value does the source give for B11 here?
Its value is 20929.

How did the “CTLA4 MFI at 33.3 nM” value turn out when B12 was run?
Its value is 21900.

For B13, which “CTLA4 MFI at 33.3 nM” value is on record?
Its value is 23485.

For B14, which “CTLA4 MFI at 33.3 nM” value is on record?
Its value is 3227.

Same assay, conditions: Table E23; CD80 IgV-Fc (inert) at 33.3 nM; CHO cells stably expressing CTLA4

With B15 as the molecule, how does the “CTLA4 MFI at 33.3 nM” value read?
The value was 12156.

How did the “CTLA4 MFI at 33.3 nM” value turn out when B16 was run?
Its value is 21923.

With B17 as the molecule, how does the “CTLA4 MFI at 33.3 nM” value read?
Its value is 25398.

With B18 as the molecule, how does the “CTLA4 MFI at 33.3 nM” value read?
The value was 20280.

Same assay, conditions: Table E23; MFI at 33.3 nM relative to CD80 WT IgV-Fc

For B15, which “CTLA4 Fold change to WT CD80” value is on record?
The value was 8.8.

With B16 as the molecule, how does the “CTLA4 Fold change to WT CD80” value read?
Its value is 15.8.
